# Experimental data: paper PMC9122904, “Insights into the client protein release mechanism of the ATP-independent chaperone Spy” (Nature Communications, 2022)
# T1: Spy_(29-124) K54D R55D (UniProt P77754 52-147, K54D | R55D)
# T1 construct: source: E. coli BL21 (DE3), purified (Ni-NTA, cation exchange, SEC); not shown: His6, N-terminal, cleaved; SUMO, N-terminal, cleaved
# T1 sequence (looked up): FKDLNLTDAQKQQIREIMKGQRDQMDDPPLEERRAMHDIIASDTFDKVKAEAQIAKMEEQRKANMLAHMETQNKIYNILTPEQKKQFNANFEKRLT
# T2: Spy_(29-124) H96D (UniProt P77754 52-147, H96D)
# T2 construct: source: E. coli BL21 (DE3), purified (Ni-NTA, cation exchange, SEC); not shown: His6, N-terminal, cleaved; SUMO, N-terminal, cleaved
# T2 sequence (looked up): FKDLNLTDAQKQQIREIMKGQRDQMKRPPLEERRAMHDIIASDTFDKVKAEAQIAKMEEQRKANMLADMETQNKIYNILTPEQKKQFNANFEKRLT
# T3: Spy_(R43D) (UniProt P77754 24-161, R43D)
# T3 construct: source: E. coli BL21 (DE3), purified (Ni-NTA, cation exchange, SEC); not shown: His6, N-terminal, cleaved; SUMO, N-terminal, cleaved
# T3 sequence (looked up): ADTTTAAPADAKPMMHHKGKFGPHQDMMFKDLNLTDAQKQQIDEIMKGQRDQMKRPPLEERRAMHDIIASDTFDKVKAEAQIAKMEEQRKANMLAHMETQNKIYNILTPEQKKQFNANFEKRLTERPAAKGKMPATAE
# T4: Spy_(R50D) (UniProt P77754 24-161, R50D)
# T4 construct: source: E. coli BL21 (DE3), purified (Ni-NTA, cation exchange, SEC); not shown: His6, N-terminal, cleaved; SUMO, N-terminal, cleaved
# T4 sequence (looked up): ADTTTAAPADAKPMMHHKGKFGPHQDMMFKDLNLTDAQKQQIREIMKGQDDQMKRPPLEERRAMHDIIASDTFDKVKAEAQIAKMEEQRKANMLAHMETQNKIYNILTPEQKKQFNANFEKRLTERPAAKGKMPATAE
# T5: Spy D26K R50D (UniProt P77754 24-161, D26K | R50D)
# T5 construct: source: E. coli BL21 (DE3), purified (Ni-NTA, cation exchange, SEC); not shown: His6, N-terminal, cleaved; SUMO, N-terminal, cleaved
# T5 sequence (looked up): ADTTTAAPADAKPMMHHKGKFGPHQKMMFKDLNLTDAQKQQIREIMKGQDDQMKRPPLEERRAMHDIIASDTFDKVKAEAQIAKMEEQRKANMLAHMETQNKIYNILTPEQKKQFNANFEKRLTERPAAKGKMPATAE
# T6: Spy_(K54D R55D) (UniProt P77754 24-161, K54D | R55D)
# T6 construct: source: E. coli BL21 (DE3), purified (Ni-NTA, cation exchange, SEC); not shown: His6, N-terminal, cleaved; SUMO, N-terminal, cleaved
# T6 sequence (looked up): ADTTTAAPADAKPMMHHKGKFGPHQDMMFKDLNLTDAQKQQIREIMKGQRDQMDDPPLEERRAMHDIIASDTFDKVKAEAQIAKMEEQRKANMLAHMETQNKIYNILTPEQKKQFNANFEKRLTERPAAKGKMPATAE
# T7: Spy_(R61D R62D) (UniProt P77754 24-161, R61D | R62D)
# T7 construct: source: E. coli BL21 (DE3), purified (Ni-NTA, cation exchange, SEC); not shown: His6, N-terminal, cleaved; SUMO, N-terminal, cleaved
# T7 sequence (looked up): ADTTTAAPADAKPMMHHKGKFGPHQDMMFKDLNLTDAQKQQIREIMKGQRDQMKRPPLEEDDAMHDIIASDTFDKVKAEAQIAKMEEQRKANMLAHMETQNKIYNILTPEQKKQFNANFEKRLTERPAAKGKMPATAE
# T8: Spy H65D (UniProt P77754 24-161, H65D)
# T8 construct: source: E. coli BL21 (DE3), purified (Ni-NTA, cation exchange, SEC); not shown: His6, N-terminal, cleaved; SUMO, N-terminal, cleaved
# T8 sequence (looked up): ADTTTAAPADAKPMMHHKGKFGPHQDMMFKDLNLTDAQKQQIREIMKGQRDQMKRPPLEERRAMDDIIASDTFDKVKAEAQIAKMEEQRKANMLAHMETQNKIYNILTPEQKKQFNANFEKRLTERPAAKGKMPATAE
# T9: Spy D26K K121D R122D (UniProt P77754 24-161, D26K | K121D | R122D)
# T9 construct: source: E. coli BL21 (DE3), purified (Ni-NTA, cation exchange, SEC); not shown: His6, N-terminal, cleaved; SUMO, N-terminal, cleaved
# T9 sequence (looked up): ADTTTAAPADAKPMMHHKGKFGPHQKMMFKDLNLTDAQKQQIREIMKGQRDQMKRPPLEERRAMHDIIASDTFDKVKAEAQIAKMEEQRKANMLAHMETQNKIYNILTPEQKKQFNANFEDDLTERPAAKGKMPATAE
# Legend:
# Test in all cases: BLI; Octet RED96; client biotinylated and loaded on streptavidin sensors; Spy or Spy variant in solution at 0.25, 0.5, 1, 1.5 and 2 μM; 40 mM HEPES, 150 mM NaCl, pH 7.5; Kd calculated as koff/kon
# Conditions in all cases: both partners purified
# Spy_(29-124) K54D R55D = biological target: T1, Spy_(29-124) K54D R55D
# Spy_(29-124) H96D = biological target: T2, Spy_(29-124) H96D
# Spy_(R43D) = biological target: T3, Spy_(R43D)
# Procedure, shortened: (§1)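 Biolayer interferometry used an Octet RED96: client proteins biotinylated with EZ-link NHS-biotin (1:1 molar ratio) were loaded on streptavidin sensors, dipped into 40 mM HEPES, 150 mM NaCl, pH 7.5 containing Spy protein at 0.25, 0.5, 1, 1.5 and 2 μM, then moved to Spy-free buffer. Wavelength-shift association and dissociation curves were fitted in SigmaPlot 12.0, giving observed association rate and koff. kon came from observed rate versus Spy concentration; Kd was koff/kon.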
# Spy_(R50D) = biological target: T4, Spy_(R50D)
# Procedure, shortened: as §1
# Spy D26K R50D = biological target: T5, Spy D26K R50D
# Procedure, shortened: as §1
# Spy_(K54D R55D) = biological target: T6, Spy_(K54D R55D)
# Procedure, shortened: as §1
# Spy_(R61D R62D) = biological target: T7, Spy_(R61D R62D)
# Procedure, shortened: as §1
# Spy H65D = biological target: T8, Spy H65D
# Procedure, shortened: as §1
# Spy D26K K121D R122D = biological target: T9, Spy D26K K121D R122D
# Procedure, shortened: as §1
binder,measurement,setting,value
"Im7 H40W L53A I54A (natural protein, biotin (EZ-link NHS-biotin, 1:1 molar ratio of biotin to protein), Im7 (colicin E7 immunity protein) with H40W L53A I54A; Spy was made with an N-terminal His6-SUMO tag that was cleaved; also called Im7AAW; partially folded client; source: purified by a similar procedure to Spy) MELKNSISDYTEAEFVQLLKEIEKENVAATDDVLDVLLEWFVKITEHPDGTDAAYYPSDNRDDSPEGIVKEIKEWRAANGKPGFKQG",koff,Spy_(29-124) K54D R55D,0.239 s⁻¹
same,koff,Spy_(29-124) H96D,0.234 s⁻¹
same,koff,Spy_(R43D),0.533 s⁻¹
same,koff,Spy_(R50D),0.543 s⁻¹
same,koff,Spy D26K R50D,0.147 s⁻¹
same,koff,Spy_(K54D R55D),0.0743 s⁻¹
same,koff,Spy_(R61D R62D),0.0727 s⁻¹
same,koff,Spy H65D,0.427 s⁻¹
same,koff,Spy D26K K121D R122D,0.202 s⁻¹
